Experimental findings from patent US20180142016A1 are described below.

B1: P601-149 (scFv, from another filing, V domains shown)
VH: EAQLVESGGGLVKPGGSLRLSCAASGFTFSDYYMGWVRQAPGKGLKWLSYISDRAHTIYDTDSVKGRFTISRDDAKSSLYLRMNNLRVEDTAVYYCARAVGAGEGFDYWGQGTLVTVSS
VL: DIQLTQSPSSLSASVGDRVTITCQASQDVRNYLNWYQQKPGKAPNLLIYDATNLESGVPSRFSGSGSGTDFTFTISSLQPEDFATYYCQQYDNLPLSFGGGTKVEIK
B2: P601-153 (scFv, from another filing, V domains shown)
VH: QMQLVQSGAEVKKPGASVKVSCKASGYTFTSYYMHWVRQAPGQGLEWMGIINPSGGSTSYAQKFQGRVTMTRDTSTSTVYMELSSLRSEDTAVYYCARGGYTGWSPSDPWGQGTLVTVSS
VL: QSALTQPASVSGSPGQSITISCTGTSSDVGGYNYVSWYQQHPGKAPKFMIYDVSKRPSGVSNRFSGSKSGNTASLTISGLQAEDEADYYCGSFTSSITYVFGTGTKVTVL
B3: P601-128 (scFv, from another filing, V domains shown)
VH: EVQLVQSGAEVKKPGESLKISCKGSGYSFSRYWIGWVRQMPGKGLEWMGIIYPRDSDTRYSPSFQGQVTISADKSISTAYLQWSSLKASDTAMYYCATPVVTAGAFDIWGQGTMVTVSS
VL: DIQMTQSPSSVSASVGDRVTITCRASQGISSWLAWYQQKPGKAPKLLIYAASSLQSGVPSRFSGSGSGTDFTLTISSLQPEDFATYYCQQANSFPLTFGGGTKVEIK

The target of this assay is human ROR1 extracellular domain (ECD) protein (human) (UniProt Q01973). The assay can be described thus: competitive phage ELISA, soluble vs coated ROR1. A general note: In an ELISA, binding on a coated surface is turned into a signal by an enzyme label.
Sequence of human ROR1 extracellular domain (ECD) protein (human) (Q01973 30-406 limits assumed): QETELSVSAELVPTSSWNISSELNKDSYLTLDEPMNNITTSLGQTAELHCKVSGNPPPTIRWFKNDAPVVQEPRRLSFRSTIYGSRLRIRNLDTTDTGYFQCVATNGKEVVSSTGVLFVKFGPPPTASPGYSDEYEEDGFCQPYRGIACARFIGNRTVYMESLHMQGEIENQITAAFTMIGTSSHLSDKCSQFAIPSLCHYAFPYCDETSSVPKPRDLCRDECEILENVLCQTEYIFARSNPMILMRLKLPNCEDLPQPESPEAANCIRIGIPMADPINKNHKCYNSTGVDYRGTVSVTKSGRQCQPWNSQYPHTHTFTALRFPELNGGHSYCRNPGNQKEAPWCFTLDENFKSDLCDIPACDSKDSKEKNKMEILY
B1 registered an IC50 of 2.76 nM.
The same measure for B2: 1.53 nM; for B3: 263 nM.

Broadly, the IC50 is the point on the concentration scale where inhibition reaches its midpoint. Lower therefore signals greater potency in that assay.
